Biological target: His111 (UniProt position 111, …)
Assay: NMR
Conditions: 288 K

B1: Prion protein fragment PrP(106-115) (Homo sapiens) (peptide)
chain: KTNMKHMAGA
  pKa: ∼5
Free peptide, no copper, 0.3 mM peptide
  pKa: 6.2

Reference: publication PMC4804749
